± gives the uncertainty stated by the source.
Assay: self-splicing fitness, log relative to wild type (ln ratio); higher = more splicing; Tetrahymena group I intron in knt gene, E. coli kanamycin selection, DiMSum; sequences stand for … in CUCUCU…GGAGGGAAAAGUUAUCAGGCAUGCACCUGGUAGCUAGUCUUUAAACCAAUAGAUUGCAUCGGUUUAAAAGGCAAGACCGUCAAAUUGCGGGAAAGGGGUCAACAGCCGUUCAGUACCAAGUCUCAGGGGAAACUUUGAGAUGGCCUUGCAAAGGGUAUGGUAAUAAGCUGACGGACAUGGUCCUAACCACGCAGCCAAGUCCUAAGUCAACAGAUCUUCUGUUGAUAUGGAUGCAGUUCACAGACUAAAUGUCGGUCGGGGAAGAUGUAUUCUUCUCAUAAGAUAUAGUCGGACCUCUCCUUAAUGGGAGCUAGCGGAUGAAGUGAUGCAACACUGGAGCCGCUGGGAACUAAUUUGUAUGCGAAAGUAUAUUGAUUAGUUUUGGAGUACUCGUGGUCG
Method in brief: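 A randomised library covering all eight P1ex-region intron nucleotides was built with the intron in the knt kanamycin-resistance gene on pET-22b(+) and held in E. coli BL21(DE3). Cells were grown overnight at 37°C or 30°C on LB agar, with or without 25 μg/mL kanamycin, plus 100 μg/mL carbenicillin, 50 μM IPTG and 0.2% rhamnose, and pooled colonies were amplicon-sequenced on an Illumina HiSeq 2500. DiMSum fitness is the error-weighted combination of wild-type-normalised replicate fold changes, kanamycin versus none.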

| Sequence | self-splicing fitness (ln) (30 °C) | self-splicing fitness (ln) (37 °C) |
| --- | --- | --- |
| UUAGAGCAAUAUUACGCAAU | -2.21 ± 0.2 | -1.52 ± 0.41 |
| UUAGAGCAAUAUUACGCCGA | -0.286 ± 0.14 | 0.255 ± 0.18 |
| UUAGAGCAAUAUUACGCCUG | -0.457 ± 0.11 | 0.235 ± 0.18 |
| UUAGAGCAAUAUUACGCGAG | -0.443 ± 0.084 | -0.0681 ± 0.094 |
| UUAGAGCAAUAUUACGGACA | -2.08 ± 0.13 | -0.655 ± 0.16 |
| UUAGAGCAAUAUUACGGAUC |  | -1.56 ± 0.4 |
| UUAGAGCAAUAUUACGGUAA | -1.34 ± 0.086 | -0.0767 ± 0.11 |
| UUAGAGCAAUAUUACGGUAG | -1.27 ± 0.12 | -0.297 ± 0.14 |
| UUAGAGCAAUAUUACGGUGG | -1.95 ± 0.12 | -0.679 ± 0.13 |
| UUAGAGCAAUAUUACGUACC |  | -0.711 ± 0.48 |
| UUAGAGCAAUAUUACGUGAG | -1.88 ± 0.083 | -0.875 ± 0.13 |
| UUAUAGCAAUAUUACGACAU | -2.471 ± 0.021 | -1.55 ± 0.036 |
| UUAUAGCAAUAUUACGACUG | -1.05 ± 0.14 | -0.662 ± 0.15 |
| UUAUAGCAAUAUUACGAUCC |  | -2.87 ± 0.26 |
| UUAUAGCAAUAUUACGAUUG | -1.01 ± 0.13 | -0.505 ± 0.2 |
| UUAUAGCAAUAUUACGCGUG | -0.968 ± 0.11 | -0.618 ± 0.13 |
| UUAUAGCAAUAUUACGCUAC |  | -1.33 ± 0.45 |
| UUAUAGCAAUAUUACGCUCC | -2.11 ± 0.24 | 0.501 ± 0.45 |
| UUAUAGCAAUAUUACGGCUU | -1.99 ± 0.17 | -0.583 ± 0.18 |
| UUAUAGCAAUAUUACGGUGU | -3.63 ± 0.31 | -2.23 ± 0.3 |

| Sequence | self-splicing fitness (ln) (30 °C) | self-splicing fitness (ln) (37 °C) |
| --- | --- | --- |
| UUAUAGCAAUAUUACGUGCC | -2.08 ± 0.27 | -0.756 ± 0.35 |
| UUAUAGCAAUAUUACGUUAA | -2.07 ± 0.29 | -1.61 ± 0.22 |
| UUAUAGCAAUAUUACGUUAU |  | -2.31 ± 0.34 |
| UUAUAGCAAUAUUACGUUCG | -0.942 ± 0.091 | 0.154 ± 0.14 |
| UUAUAGCAAUAUUACGUUCU | -2.18 ± 0.15 | -1.11 ± 0.16 |
| UUCAAGCAAUAUUACGAAUC | -4.05 ± 0.3 | -2.75 ± 0.32 |
| UUCAAGCAAUAUUACGAAUU | -3.21 ± 0.24 | -1.69 ± 0.27 |
| UUCAAGCAAUAUUACGACAU | -1.614 ± 0.014 | -0.69 ± 0.033 |
| UUCAAGCAAUAUUACGAGUA | -0.831 ± 0.083 | -0.136 ± 0.089 |
| UUCAAGCAAUAUUACGAGUC | -3.3 ± 0.31 | -1.93 ± 0.26 |
| UUCAAGCAAUAUUACGAUAA | -0.317 ± 0.048 | 0.226 ± 0.059 |
| UUCAAGCAAUAUUACGAUAU | -2.7 ± 0.18 | -1.42 ± 0.18 |
| UUCAAGCAAUAUUACGCACA | -0.531 ± 0.089 | 0.153 ± 0.13 |
| UUCAAGCAAUAUUACGCAUU | -3.98 ± 0.26 | -1.27 ± 0.13 |
| UUCAAGCAAUAUUACGCCGA | -0.5 ± 0.18 | -0.423 ± 0.23 |
| UUCAAGCAAUAUUACGCGUA | -1.17 ± 0.14 | -0.0781 ± 0.1 |
| UUCAAGCAAUAUUACGCGUG | -3.38 ± 0.17 | -2.13 ± 0.17 |
| UUCAAGCAAUAUUACGGAGA | -1.55 ± 0.18 | -1.32 ± 0.19 |
| UUCAAGCAAUAUUACGGAGC | -2.66 ± 0.28 | -1.8 ± 0.23 |

— the supplement of paper PMC7877785
